Results on one molecule are retold here after patent US20030157685A1 (GENERAL HOSPITAL CORPORATION A MASSACHUSETTS, published 2003).

Assay [1] deals with T1, LexA-N-myc bait (carboxyl-terminal 224 amino acids of human N-myc) (human, UniProt P0A7C2 1-202; P04198 241-464).
T1 construct: also called PL-LexA-N-myc
T1 sequence (looked up): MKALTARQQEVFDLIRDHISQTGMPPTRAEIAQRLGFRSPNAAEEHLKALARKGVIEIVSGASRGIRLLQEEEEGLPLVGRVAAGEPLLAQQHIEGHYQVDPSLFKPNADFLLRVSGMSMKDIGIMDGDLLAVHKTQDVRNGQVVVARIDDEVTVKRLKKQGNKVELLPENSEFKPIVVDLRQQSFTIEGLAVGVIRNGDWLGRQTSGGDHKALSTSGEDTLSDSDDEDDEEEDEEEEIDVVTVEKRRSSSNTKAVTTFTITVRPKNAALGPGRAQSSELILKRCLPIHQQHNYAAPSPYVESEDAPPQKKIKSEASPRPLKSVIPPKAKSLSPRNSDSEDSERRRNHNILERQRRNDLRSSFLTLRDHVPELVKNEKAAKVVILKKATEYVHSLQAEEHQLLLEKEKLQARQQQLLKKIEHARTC
Put plainly: yeast two-hybrid.

Assay [2] has as its target T2, LexA-C-myc bait (carboxy-terminal 176 amino acids of human C-myc) (human, UniProt P0A7C2 1-202; P01106 279-454).
T2 construct: also called Lex-C-myc
Put plainly: yeast two-hybrid.

B1: full length Nmi fused in-frame with the transcriptional activator B42 in JG4-5 vector (other, not shown: small tags and cut ends)
chain: MEADKDDTQQILKEHSPDEFIKDEQNKGLIDEITKKNIQLKKEIQKLETELQEATKEFQIKEDIPETKMKFLSVETPENDSQLSNISCSFQVSSKVPYEIQKGQALITFEKEEVAQNVVSMSKHHVQIKDVNLEVTAKPVPLNSGVRFQVYVEVSKMKINVTEIPDTLREDQMRDKLELSFSKFRNGGGEVDRVDYDRQSGSAVITFVEIGVADKILKKKEYPLYINQTCHRVTVSPYTEIHLKKYQIFSGTSKRTVLLTGMEGIQMDEEIVEDLINIHFQRAKNGGGEVDVVKCSLGQPHIAYFEE
notes: Yeast two-hybrid prey; the 307 amino acid protein is meant
B1: the binding result in assay [1] and in assay [2] was “binds” each time.
